Numbering of substitutions follows the chain as printed.
B1: 5539 (antibody, V domains shown)
VH: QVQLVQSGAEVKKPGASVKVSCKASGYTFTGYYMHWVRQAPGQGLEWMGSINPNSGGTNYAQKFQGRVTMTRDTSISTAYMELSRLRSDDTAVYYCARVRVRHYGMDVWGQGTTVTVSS
VL: DIQMTQSPSSLSASVGDRVTITCRASQSISSYLNWYQQKPGKAPKLLIYAASSLQSGVPSRFSGSGSGTDFTLTISSLQPEDFATYYCQQPLSHPRTFGGGTKVEIK
notes: anti-BACE1 IgG
B2: 5874 (antibody, V domains shown)
VH: EVQLLESGGGLVQPGGSLRLSCAASGFTFGSYAMSWVRQAPGKGLEWVSATSGSGGSTYYADSVKGRFTISRDNSKNTLYLQMDSLRAEDTAVYYCAKGGSQWLYAPGSWFDPWGQGTLVTVSS
VL: EIVLTQSPATLSLSPGERATLSCRASQSVSSYLAWYQQKPGQAPRLLIYDASNRATGIPARFSGSGSGTDFTLTISSLEPEDFAVYYCVQRSNFPWTFGGGTKVEIK
notes: anti-BACE1 IgG
B3: 5931 (antibody, V domains shown)
VH: QLQLQESGPGLVKPSETLSLTCTVSGGSISWSSYYWSWIRQPPGKGLEWIGSIYRSGRTYYNPSLKGRVTISVDTSKNQFSLKLSSVTAADTAVYYCARVGHGINYFDLWGRGTLVTVSS
VL: EIVLTQSPATLSLSPGERATLSCRASQSVSSYLAWYQQKPGQAPRLLIYDASKRATGIPARFSGSGSGTDFTLTISSLEPEDFAVYYCQQVYTWPPRTFGGGTKVEIK
notes: anti-BACE1 IgG
B4: 5932 (antibody, V domains shown)
VH: B3 VH with W31R, S32G, S37G, S52M, R55Y, R58S, Y60W, G67S, N105S
VL: B3 VL
notes: anti-BACE1 IgG
B5: 5985 (antibody, V domains shown)
VH: B3 VH with W31S, S37G, S52N, R55Y, R58S, G67S, V100L, I104Y
VL: B3 VL with Y36F, K53N, T93V
notes: anti-BACE1 IgG
B6: 5982 (antibody, V domains shown)
VH: B3 VH with W31S, S37G, S52N, R55Y, R58S, G67S, V100L, I104Y, N105S
VL: B3 VL with Y36F, K53N, T93V
notes: anti-BACE1 IgG
B7: 5986 (antibody, V domains shown)
VH: B3 VH with W31S, S37G, S52Q, R55Y, R58S, Y60F, G67S, V100L, I104Y, N105S
VL: B3 VL with Y36F, K53N, T93V
notes: anti-BACE1 IgG
B8: 5984 (antibody, V domains shown)
VH: B3 VH with W31S, S37G, S52N, R55Y, R58S, V100L, I104Y
VL: B3 VL with Y36F, K53N, T93V
notes: anti-BACE1 IgG
B9: 5933 (antibody, V domains shown)
VH: B3 VH with W31R, S32G, S37G, S52M, R55Y, R58S, Y60W, G67S, I104V, N105S
VL: B3 VL with D50G
notes: anti-BACE1 IgG

Target: T1, BACE1 in primary mouse cortical neurons (mouse, UniProt P56818 46-501)
T1 sequence (P56818 46-501): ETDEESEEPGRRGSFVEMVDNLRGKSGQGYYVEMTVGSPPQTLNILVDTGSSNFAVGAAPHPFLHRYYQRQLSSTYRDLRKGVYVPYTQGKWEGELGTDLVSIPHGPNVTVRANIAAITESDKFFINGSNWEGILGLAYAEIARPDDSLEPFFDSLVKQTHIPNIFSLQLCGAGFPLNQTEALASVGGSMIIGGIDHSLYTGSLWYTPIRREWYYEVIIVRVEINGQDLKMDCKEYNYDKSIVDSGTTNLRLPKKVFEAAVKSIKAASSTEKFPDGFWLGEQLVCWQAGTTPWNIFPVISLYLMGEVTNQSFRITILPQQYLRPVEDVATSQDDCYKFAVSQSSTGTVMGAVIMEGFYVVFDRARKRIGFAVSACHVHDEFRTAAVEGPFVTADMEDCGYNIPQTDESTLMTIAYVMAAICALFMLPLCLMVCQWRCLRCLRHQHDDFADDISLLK
Test: cell-based or functional assay

Row | IC50, Abeta x-40 in mouse cortical neurons [pM] | maximal % inhibition of Abeta x-40 [%] | Binder
1 | 17600 | 45 | B1

Target: BACE1 (HTRF long substrate and FRET short substrate assays of Example 9D)
Test: cell-based or functional assay

Row | EC50, HTRF long substrate [pM] | EC50, FRET short substrate [pM] | Binder
2 | 694 |  | B1
3 | 3970 | 798 | B2

Target: T2, murine BACE1 ECD
T2 construct: analyte of the Octet assay (200 nM) and enzyme of the first short substrate assay
T2 sequence (single chain, as listed by the source limits assumed): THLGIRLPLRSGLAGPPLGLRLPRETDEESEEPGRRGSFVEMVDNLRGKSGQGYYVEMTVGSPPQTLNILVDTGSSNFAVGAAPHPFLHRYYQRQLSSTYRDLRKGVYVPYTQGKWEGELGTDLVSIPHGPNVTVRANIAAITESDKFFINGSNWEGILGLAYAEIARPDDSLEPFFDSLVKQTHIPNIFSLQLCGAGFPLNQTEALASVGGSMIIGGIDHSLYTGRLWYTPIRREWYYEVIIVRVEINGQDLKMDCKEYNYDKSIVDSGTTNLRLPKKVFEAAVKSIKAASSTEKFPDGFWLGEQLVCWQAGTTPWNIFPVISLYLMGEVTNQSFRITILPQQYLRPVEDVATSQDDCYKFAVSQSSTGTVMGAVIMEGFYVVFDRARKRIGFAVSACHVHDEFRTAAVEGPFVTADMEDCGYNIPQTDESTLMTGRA
Test: Octet, pH 7.5;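 also: antibodies captured on anti-human capture biosensor tips, dissociation followed in PBS with BSA buffer, kinetics fitted with a one-to-one binding model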

Row | Kd [pM] | Binder
4 | < 230 | B3
5 | < 300 | B4
6 | 650 | B5
7 | 2000 | B6
8 | 540 | B7
9 | 360 | B8
10 | < 240 | B9

Target: T3, human BACE1 ECD
T3 construct: analyte of the Octet assay (200 nM) and enzyme of the first short substrate assay; also called human BACE1 extracellular domain
T3 sequence (single chain, as listed by the source limits assumed): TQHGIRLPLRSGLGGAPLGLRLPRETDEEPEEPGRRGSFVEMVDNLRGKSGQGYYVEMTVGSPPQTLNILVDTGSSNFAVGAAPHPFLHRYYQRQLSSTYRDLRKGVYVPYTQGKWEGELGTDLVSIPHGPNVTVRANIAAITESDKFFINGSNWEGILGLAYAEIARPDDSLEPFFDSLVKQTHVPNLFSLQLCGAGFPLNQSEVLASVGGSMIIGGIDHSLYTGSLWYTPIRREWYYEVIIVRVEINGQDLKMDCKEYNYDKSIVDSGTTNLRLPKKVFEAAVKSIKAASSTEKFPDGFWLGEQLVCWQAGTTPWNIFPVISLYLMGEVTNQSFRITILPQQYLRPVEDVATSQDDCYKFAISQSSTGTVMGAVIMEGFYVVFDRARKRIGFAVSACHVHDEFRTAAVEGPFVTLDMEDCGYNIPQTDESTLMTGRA
Test: Octet, pH 7.5;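 also: antibodies captured on anti-human capture biosensor tips, dissociation followed in PBS with BSA buffer, kinetics fitted with a one-to-one binding model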

Row | Kd [pM] | Binder
11 | < 220 | B3
12 | 310 | B4
13 | 870 | B5
14 | 2900 | B6
15 | 780 | B7
16 | 430 | B8
17 | 320 | B9

Target: T4, human BACE1 (R&D Systems) (human, UniProt P56817)
T4 construct: recombinant, commercial (R&D Systems)
T4 sequence (P56817 22-457 limits assumed): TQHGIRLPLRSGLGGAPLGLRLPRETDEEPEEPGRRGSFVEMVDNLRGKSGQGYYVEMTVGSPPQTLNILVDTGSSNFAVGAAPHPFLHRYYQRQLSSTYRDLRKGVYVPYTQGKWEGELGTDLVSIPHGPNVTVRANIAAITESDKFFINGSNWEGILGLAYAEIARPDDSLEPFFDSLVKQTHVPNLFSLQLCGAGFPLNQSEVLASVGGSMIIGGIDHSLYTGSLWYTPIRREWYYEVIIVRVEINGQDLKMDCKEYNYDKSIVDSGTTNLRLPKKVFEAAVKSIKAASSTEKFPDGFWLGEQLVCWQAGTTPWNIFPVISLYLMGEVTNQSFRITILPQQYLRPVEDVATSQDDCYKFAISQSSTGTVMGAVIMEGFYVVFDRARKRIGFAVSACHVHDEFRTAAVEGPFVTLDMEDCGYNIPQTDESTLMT
Test: SPR (Biacore)

Row | Kd [pM] | Binder
18 | 30500 | B1
19 | 1300 | B2

Target: T2, murine BACE1 ECD
Test: Octet, pH 7.5;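 also: antibodies captured on anti-human capture biosensor tips, dissociation followed in PBS with BSA buffer, kinetics fitted with a one-to-one binding model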
Remark: another data set of the same source

Row | Kd [pM] | Binder
20 | 110000 | B1
21 | 22000 | B2

Target: T3, human BACE1 ECD
Test: Octet, pH 7.5;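 also: antibodies captured on anti-human capture biosensor tips, dissociation followed in PBS with BSA buffer, kinetics fitted with a one-to-one binding model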
Remark: another data set of the same source

Row | Kd [pM] | Binder
22 | 79000 | B1
23 | 33000 | B2

Target: T1, BACE1 in primary mouse cortical neurons
Test: cell-based or functional assay
Remark: another data set of the same source

Row | IC50, Abeta x-40 in mouse cortical neurons [pM] | maximal % inhibition of Abeta x-40 [%] | Binder
24 | 910 | 69 | B3
25 | 6260 | 57 | B4
26 |  | 73 | B5
27 | 27300 | 71 | B6
28 | 5420 | 67 | B7
29 | 22600 | 70 | B8
30 | 3600 | 67 | B9

Target: T2, murine BACE1 ECD
Test: Octet, pH 5.0

Row | Kd [pM] | Binder
31 | 200000 | B2

Target: T2, murine BACE1 ECD
Test: Octet, pH 5.0
Remark: another data set of the same source

Row | Kd [pM] | Binder
32 | < 280 | B3
33 | < 300 | B4
34 | 810 | B5
35 | 2300 | B6
36 | < 270 | B7
37 | 370 | B8
38 | < 240 | B9

Target: T3, human BACE1 ECD
Test: Octet, pH 5.0

Row | Kd [pM] | Binder
39 | < 220 | B3
40 | < 230 | B4
41 | 680 | B5
42 | 2300 | B6
43 | < 240 | B7
44 | 340 | B8
45 | < 200 | B9

Target: T2, murine BACE1 ECD
Test: cell-based or functional assay

Row | % inhibition of BACE1 activity, short FRET substrate [%] | Binder
46 | 23 | B1
47 | 33 | B2

Target: T3, human BACE1 ECD
Test: cell-based or functional assay

Row | % inhibition of BACE1 activity, short FRET substrate [%] | Binder
48 | 42 | B1
49 | 37 | B2

From patent US20180057604A1 (Genentech, published 2018)
